Key:
[1] = molecular target: the molecule itself; experiment: SEC
[2] = molecular target: MyD88 S34Y DD-ID (residues 1-156), Protein A-tagged (LUMIER) (human, UniProt Q99836 1-156, S34Y); experiment: LUMIER
[3] = molecular target: MyD88 R98C DD-ID (residues 1-156), Protein A-tagged (LUMIER) (human, UniProt Q99836 1-156, R98C); experiment: LUMIER
Sequence of MyD88 R98C DD-ID (residues 1-156), Protein A-tagged (LUMIER) (Q99836 1-156 R98C): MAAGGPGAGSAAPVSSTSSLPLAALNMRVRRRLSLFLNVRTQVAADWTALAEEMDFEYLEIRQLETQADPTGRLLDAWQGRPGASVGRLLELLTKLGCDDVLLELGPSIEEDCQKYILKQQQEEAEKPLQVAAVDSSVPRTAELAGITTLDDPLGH

Sequence of MyD88 S34Y DD-ID (residues 1-156), Protein A-tagged (LUMIER) (Q99836 1-156 S34Y): as the sequence (Q99836 1-156 R98C) above, with S34Y, C98R counted along it

B1: MyD88 R98C DD, purified from bacteria (domain or fragment)
chain: SLPLAALNMRVRRRLSLFLNVRTQVAADWTALAEEMDFEYLEIRQLETQADPTGRLLDAWQGRPGASVGRLLELLTKLGCDDVLLELGPSI
[1]
  stoichiometry N: 2

B2: Renilla luciferase-tagged IRAK4 DD (residues 1-106) (domain or fragment)
chain: MNKPITPSTYVRCLNVGLIRKLSDFIDPQEGWKKLAVAIKKPSGDDRYNQFHIRRFEALLQTGKSPTSELLFDWGTTNCTVGDLVDLLIQNEFFAPASLLLPDAVP
[2]
  fold reduction of binding against WT DD: > 10 fold
[3]
  fold reduction of binding against WT DD: > 10 fold

Reference: publication PMC3020742 (The Journal of Biological Chemistry, 2010)
